Source: patent US20250019450A1 (DIAGONAL THERAPEUTICS, published 2025)

T1: human IL-12RB2 with C-terminal HA tag, transiently expressed on HEK-293T cells (human, UniProt Q99665 24-862)
T1 construct: whole, on cells; also called human IL-12Rβ2
T1 sequence (looked up): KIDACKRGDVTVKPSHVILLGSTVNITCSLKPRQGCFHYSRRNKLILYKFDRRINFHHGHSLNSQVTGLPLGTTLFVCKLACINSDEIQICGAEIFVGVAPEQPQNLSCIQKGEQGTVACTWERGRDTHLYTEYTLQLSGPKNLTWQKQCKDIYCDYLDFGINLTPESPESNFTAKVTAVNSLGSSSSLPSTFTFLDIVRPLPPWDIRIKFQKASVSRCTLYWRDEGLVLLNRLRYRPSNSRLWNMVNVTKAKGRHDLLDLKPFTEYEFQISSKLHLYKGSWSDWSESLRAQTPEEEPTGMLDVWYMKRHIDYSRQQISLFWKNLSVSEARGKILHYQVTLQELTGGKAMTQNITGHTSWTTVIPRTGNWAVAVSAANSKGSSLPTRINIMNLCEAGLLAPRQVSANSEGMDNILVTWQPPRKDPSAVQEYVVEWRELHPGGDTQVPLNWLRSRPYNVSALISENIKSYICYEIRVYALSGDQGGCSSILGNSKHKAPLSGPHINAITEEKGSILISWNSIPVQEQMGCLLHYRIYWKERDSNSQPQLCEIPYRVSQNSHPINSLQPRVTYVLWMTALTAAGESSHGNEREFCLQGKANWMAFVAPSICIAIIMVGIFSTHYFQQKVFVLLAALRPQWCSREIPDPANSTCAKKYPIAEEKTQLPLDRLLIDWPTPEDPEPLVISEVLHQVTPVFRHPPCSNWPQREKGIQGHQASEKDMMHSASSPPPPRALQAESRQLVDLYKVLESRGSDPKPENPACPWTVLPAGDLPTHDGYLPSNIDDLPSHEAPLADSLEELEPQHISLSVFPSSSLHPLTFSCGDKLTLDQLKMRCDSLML

T2: cyno IL-12RB2 with C-terminal HA tag, transiently expressed on HEK-293T cells (cyno, UniProt A0A2K5VNI7 24-860)
T2 construct: whole, on cells; also called cyno IL-12Rβ2
T2 sequence: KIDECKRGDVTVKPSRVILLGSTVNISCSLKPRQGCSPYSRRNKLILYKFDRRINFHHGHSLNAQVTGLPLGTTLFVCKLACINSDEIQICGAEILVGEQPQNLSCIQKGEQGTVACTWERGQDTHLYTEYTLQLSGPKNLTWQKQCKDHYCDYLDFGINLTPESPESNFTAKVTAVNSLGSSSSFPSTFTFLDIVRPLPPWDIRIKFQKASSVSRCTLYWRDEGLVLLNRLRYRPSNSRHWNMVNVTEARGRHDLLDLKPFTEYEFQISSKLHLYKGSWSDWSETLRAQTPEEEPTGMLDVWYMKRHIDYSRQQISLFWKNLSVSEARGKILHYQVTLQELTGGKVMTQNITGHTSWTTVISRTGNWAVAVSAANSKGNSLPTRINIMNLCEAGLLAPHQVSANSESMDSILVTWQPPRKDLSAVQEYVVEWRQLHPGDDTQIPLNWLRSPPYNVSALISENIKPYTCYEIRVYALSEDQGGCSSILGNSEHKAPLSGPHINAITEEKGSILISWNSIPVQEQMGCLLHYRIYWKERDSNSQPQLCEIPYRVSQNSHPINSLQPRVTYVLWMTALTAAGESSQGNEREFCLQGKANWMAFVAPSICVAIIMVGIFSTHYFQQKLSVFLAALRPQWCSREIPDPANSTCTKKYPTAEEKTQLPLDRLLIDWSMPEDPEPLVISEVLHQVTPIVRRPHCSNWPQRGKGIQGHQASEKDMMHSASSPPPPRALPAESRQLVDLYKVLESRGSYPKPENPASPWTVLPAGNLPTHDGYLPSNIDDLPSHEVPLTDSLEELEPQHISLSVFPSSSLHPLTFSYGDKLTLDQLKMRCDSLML

T3: human IL-12Rβ2-huFc-his (R&D system), biotinylated (human, UniProt Q99665 24-622, limits assumed, biotinylated)
T3 construct: bought; captured on Neutravidin in the ELISA; also called Bio-huIL-12Rβ2-huFc-His
T3 sequence (looked up): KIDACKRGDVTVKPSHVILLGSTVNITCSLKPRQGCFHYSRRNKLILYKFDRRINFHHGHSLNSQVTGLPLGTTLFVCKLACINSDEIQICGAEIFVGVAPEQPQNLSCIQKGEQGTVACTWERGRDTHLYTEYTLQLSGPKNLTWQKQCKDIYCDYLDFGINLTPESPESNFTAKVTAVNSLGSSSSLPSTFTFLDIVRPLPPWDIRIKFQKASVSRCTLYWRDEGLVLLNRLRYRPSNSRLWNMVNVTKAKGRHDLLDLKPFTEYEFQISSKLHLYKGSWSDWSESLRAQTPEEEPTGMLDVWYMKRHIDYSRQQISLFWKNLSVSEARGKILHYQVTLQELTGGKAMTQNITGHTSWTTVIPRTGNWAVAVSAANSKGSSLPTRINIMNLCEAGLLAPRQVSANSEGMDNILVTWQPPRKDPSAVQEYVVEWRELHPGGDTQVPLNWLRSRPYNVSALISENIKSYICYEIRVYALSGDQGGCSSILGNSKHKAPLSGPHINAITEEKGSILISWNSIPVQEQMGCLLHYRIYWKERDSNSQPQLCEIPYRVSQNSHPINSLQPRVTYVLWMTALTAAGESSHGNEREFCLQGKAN


Key:
[1] = target: T1, human IL-12RB2 with C-terminal HA tag, …; assay: FACS, periplasmic extract, HEK-293T
[2] = target: T2, cyno IL-12RB2 with C-terminal HA tag, …; assay: FACS, periplasmic extract, HEK-293T
[3] = target: T3, human IL-12Rβ2-huFc-his (R&D system), …; assay: ELISA, periplasmic extract
[4] = target: T4, human IL-12RB1 overexpressed on 293T cells (Example 2) (human, UniProt P42701 24-662); assay: FACS, hybridoma supernatant, 293T
T4 construct: whole, on cells

[5] = target: T5, cyno IL-12RB1 overexpressed on 293T cells (Example 2) (cyno, UniProt A0A2K5VWV1 24-662); assay: FACS, hybridoma supernatant, 293T
T5 construct: whole, on cells

[6] = target: T6, IL-12 receptor endogenously expressed on THP-1 cells (UniProt P42701 24-662; Q99665 24-862); assay: FACS, hybridoma supernatant, THP-1
T6 construct: whole, on cells

Binder | FOB [1] [fold] | FOB [2] [fold] | OD450 nm [3] | Fold over parental 293T [4] [fold] | Fold over parental 293T [5] [fold] | Fold over buffer [6] [fold]
VHH67B2 (VHH) VHH: QVQLVESGGGLVQPGGSLRLSCAASGFTFSNYAMSWIRQGPERGFEWVSRINSGGGTTSYADSVKGRFTISRDNAKNTLYLQMNSLKPEDTAVYYCAKHSHPDYSSNYYRPGQGTQVTVSS | 1.73 | 2.32 | 0.581 |  |  | 
VHH194B2 (VHH) VHH: QLQLVESGGGLVQAGGSLRLSCAASGLTFSGYTVGWFRQAPGKEREFVAAINWSSAYTYSEFVKGRFTISRDNAKNTVYLQMSSLKPEDTAVYYCAARRSRTSWYASTAEAYDYWGQGTQVTVSS | 1.68 | 3.06 | 0.602 |  |  | 
85801_01L02 (antibody, V domains shown, also called 85801_01L02A) VH: QVQLVHSGPEVKKPGASVKVSCKASGYTFTDYYMHWVRQAPGQGLEWMGWINPDSGGTNYAQKFQGRVTMTRDTSISTAYMELSRLRSDDTAVYHCAREGATSNFDYWGQGTLVTVSS VL: DIQMTQSPSSLSASVGDRVTITCRASQGISNYLAWFQQKPGKAPTSLIYAASNLQGGVPSKFSGSGSGTDFTLTISSLQPEDFATYYCQQYRYYPFTFGPGTKVDIK |  |  |  | 117 | 32 | 41
VHH68B2 (VHH) VHH: EVQLVESGGGLVQAGGSLKLSCAASGGTFSSYAMGWFRQAPGKEREFVAAIMRSGDTTVYVDSVKGRFTVSRDNAKNTVYLQMNSLKPEDAAVYYCAAGRPVTRTYYSTYTYPHDYDYWGQGTQVTVSS | 2.25 | 3.47 | 2.13 |  |  | 
VHH19B2 (VHH) VHH: QVQLVESGGGLVQPGGSLRLSCAASGFTFSNYAMSWVRQAPGKGLEWVSAINSDGTSTSYADSVKGQFTISRDNAKNTLYLQMNSLKPEDTAVYYCTKWEGDTDSDYKFKDYWGQGTQVTVSS | 1.63 | 2.75 | 1.3 |  |  | 
85801_01D14 (antibody, V domains shown, also called 85801_01D14A) VH: EVQLVESGGGLVKPGGSLRLSCAASGFTFSNAWMNWVRQAPGKGLEWVGRIKSKTDGGTTDYAAPVKGRFTVSRDDPKNTLYLQMNSLKTEDTAVYYCTTDPGWEFDYWGQGILVTVSS VL: DIQMTQSPSSLSASVGDRVTITCQASQDISNFLNWYQQKPGKAPNLLIYDASDLETGVPSRFSGSGSGTDFTFTISSLQPEDIATYYCQQYDNLPLTFGGGTKVEIK |  |  |  | 116 | 52 | 24
VHH13B2 (VHH) VHH: QVQLVESGGGLVRPGGSLRLSCAASGFTFSSNGMHWFRQAPGKGLEWVSSIGSGGTSIYYADSVKGRFTISRDNAKNTLYLQMNSLKSDDTAVYYCSKEVTGATRGQGTQVTVSS | 1.77 | 2.65 | 1.71 |  |  | 
VHH64B2 (VHH) VHH: QVQLVESGGGLVQPGGSLRLSCAASGFTFSSKAMHWFRQAPGKGLEWVSSINSGGAITYYKDSVKGRFTVSRDNAKNILYLEMNSLKPEDTALYYCATDTDGRTRGQGTQVTVSS | 1.68 | 2.69 | 2.22 |  |  | 

Other lines, results leading:

FOB [1] [fold] | FOB [2] [fold] | OD450 nm [3] | Fold over parental 293T [4] [fold] | Fold over parental 293T [5] [fold] | Fold over buffer [6] [fold] | Binder
1.95 | 3.16 | 0.626 |  |  |  | VHH307B2 (VHH) VHH: QVQLVESGGGLVQAGGSLRLSCAASGRTFSRYIMGWFRQATGKEREFVAAISWSGLSTHYADSVQGRFTISRDNAENTVYLQMNSLKPEDTAVYYCAADRHWETRLLPREYDYWGQGTQVTVSS
3.17 | 1.28 | 0.961 |  |  |  | VHH222B2 (VHH) VHH: QVQLVESGGGLVQAGGSLRLSCAASGRIFSAYRMGWFRQAPGKEREFVAGITWRGQTTYYAASVKGRFTISKDNAKKTVYLQMNSLKPEETAVYYCAVETNGLGRWDRPSEYDYWGQGTQVTVSS
1.99 | 3.21 | 1.67 |  |  |  | VHH322B2 (VHH) VHH: QLQLVESGGGLVQAGGSLRLSCAASGRTFGIHGMGWFRQAPGKEREFAAAIRWSDGTTIHADSVKGRLTISRDNAKNTVYLQMNSLKPEDTAVYYCAATSNPQFGRNWYTVAAGVEYGYWGQGTQVTVSS
1.98 | 3.19 | 2.2 |  |  |  | VHH294B2 (VHH) VHH: QLQLVESGGGLVQAGGSLRLSCAASGLTFSGYTVGWFRQAPGKEREFVAAINWSSAYTYSEFVKGRFTISRDNAKNTVYLQMSSLKPEDTAVYYCAAQRSRTSWYASTAEAYDYWGQGTQVTVSS
2.16 | 4.01 | 1.35 |  |  |  | VHH361B2 (VHH) VHH: QVQLVESGGGLVQTGASLRLSCAASGRTFGRYEMAWFRQAPGKEREFVAHISSSGLTTTYADSVKGRFTISRGNALNTVYLQMNSLKPEDTAVYYCAANVDGSAWSTLGAGMDYWGKGTLVTISS
1.91 | 2.88 | 3.19 |  |  |  | VHH289B2 (VHH) VHH: QVQLVESGGGLVQAGGSLKLSCAASGGTFSSYAMGWFRQAPGKEREFVAAIMRSGGTTVYVNSVKGRFTVSRDNAKNTVYLQMNSLKPEDAAVYYCAAGRPVSRTSYYTYTYPHDYDYWGQGTQVSVSS
2.46 | 3.97 | 0.794 |  |  |  | VHH278B2 (VHH) VHH: QVQLVESGGGLVQAGGSLKLSCAASGGTFSSYAMGWFRQAPGKEREFVAVIMRSGDTTAYVDSVKGRFTVSRDNAKNTVYLQMNSLKPEDAAVYFCAAGRPVTRTYYHTYTYPHDYDYWGQGTQVTVSS
